# According to PMC2518858:
# Legend:
# [1] = biological target: MC179, the CD36-binding portion (M2 subdomain) of the CIDR1α domain of PfEMP1 from the Malayan Camp (MC) strain of P. falciparum (Plasmodium falciparum (Malayan Camp strain)); experiment: SEC; refolded MC179 on a Superdex 75 size exclusion column; species with the mobility of dimers separated from monomers
# [2] = biological target: MC179, the CD36-binding portion (M2 subdomain) of the CIDR1α domain of PfEMP1 from the Malayan Camp (MC) strain of P. falciparum (Plasmodium falciparum (Malayan Camp strain)); experiment: cross-linking; chemical cross-linking of MC179 in solution (data not shown)
substance,measurement,setting,value
"MC179, the CD36-binding portion (M2 subdomain) of the CIDR1α domain of PfEMP1 from the Malayan Camp (MC) strain of P. falciparum (domain or fragment)",stoichiometry N,[1],2
same,stoichiometry N,[2],2
